Publication doi:10.1101/2022.05.01.490205 (bioRxiv, 2022)

Target: NRR-containing SynNotch receptor (Homo sapiens, UniProt P46531, chimera)
Assay: immunostaining of cells or tissue

Chain of NRR-containing SynNotch receptor (P46531 whole entry, looked up, change not shown): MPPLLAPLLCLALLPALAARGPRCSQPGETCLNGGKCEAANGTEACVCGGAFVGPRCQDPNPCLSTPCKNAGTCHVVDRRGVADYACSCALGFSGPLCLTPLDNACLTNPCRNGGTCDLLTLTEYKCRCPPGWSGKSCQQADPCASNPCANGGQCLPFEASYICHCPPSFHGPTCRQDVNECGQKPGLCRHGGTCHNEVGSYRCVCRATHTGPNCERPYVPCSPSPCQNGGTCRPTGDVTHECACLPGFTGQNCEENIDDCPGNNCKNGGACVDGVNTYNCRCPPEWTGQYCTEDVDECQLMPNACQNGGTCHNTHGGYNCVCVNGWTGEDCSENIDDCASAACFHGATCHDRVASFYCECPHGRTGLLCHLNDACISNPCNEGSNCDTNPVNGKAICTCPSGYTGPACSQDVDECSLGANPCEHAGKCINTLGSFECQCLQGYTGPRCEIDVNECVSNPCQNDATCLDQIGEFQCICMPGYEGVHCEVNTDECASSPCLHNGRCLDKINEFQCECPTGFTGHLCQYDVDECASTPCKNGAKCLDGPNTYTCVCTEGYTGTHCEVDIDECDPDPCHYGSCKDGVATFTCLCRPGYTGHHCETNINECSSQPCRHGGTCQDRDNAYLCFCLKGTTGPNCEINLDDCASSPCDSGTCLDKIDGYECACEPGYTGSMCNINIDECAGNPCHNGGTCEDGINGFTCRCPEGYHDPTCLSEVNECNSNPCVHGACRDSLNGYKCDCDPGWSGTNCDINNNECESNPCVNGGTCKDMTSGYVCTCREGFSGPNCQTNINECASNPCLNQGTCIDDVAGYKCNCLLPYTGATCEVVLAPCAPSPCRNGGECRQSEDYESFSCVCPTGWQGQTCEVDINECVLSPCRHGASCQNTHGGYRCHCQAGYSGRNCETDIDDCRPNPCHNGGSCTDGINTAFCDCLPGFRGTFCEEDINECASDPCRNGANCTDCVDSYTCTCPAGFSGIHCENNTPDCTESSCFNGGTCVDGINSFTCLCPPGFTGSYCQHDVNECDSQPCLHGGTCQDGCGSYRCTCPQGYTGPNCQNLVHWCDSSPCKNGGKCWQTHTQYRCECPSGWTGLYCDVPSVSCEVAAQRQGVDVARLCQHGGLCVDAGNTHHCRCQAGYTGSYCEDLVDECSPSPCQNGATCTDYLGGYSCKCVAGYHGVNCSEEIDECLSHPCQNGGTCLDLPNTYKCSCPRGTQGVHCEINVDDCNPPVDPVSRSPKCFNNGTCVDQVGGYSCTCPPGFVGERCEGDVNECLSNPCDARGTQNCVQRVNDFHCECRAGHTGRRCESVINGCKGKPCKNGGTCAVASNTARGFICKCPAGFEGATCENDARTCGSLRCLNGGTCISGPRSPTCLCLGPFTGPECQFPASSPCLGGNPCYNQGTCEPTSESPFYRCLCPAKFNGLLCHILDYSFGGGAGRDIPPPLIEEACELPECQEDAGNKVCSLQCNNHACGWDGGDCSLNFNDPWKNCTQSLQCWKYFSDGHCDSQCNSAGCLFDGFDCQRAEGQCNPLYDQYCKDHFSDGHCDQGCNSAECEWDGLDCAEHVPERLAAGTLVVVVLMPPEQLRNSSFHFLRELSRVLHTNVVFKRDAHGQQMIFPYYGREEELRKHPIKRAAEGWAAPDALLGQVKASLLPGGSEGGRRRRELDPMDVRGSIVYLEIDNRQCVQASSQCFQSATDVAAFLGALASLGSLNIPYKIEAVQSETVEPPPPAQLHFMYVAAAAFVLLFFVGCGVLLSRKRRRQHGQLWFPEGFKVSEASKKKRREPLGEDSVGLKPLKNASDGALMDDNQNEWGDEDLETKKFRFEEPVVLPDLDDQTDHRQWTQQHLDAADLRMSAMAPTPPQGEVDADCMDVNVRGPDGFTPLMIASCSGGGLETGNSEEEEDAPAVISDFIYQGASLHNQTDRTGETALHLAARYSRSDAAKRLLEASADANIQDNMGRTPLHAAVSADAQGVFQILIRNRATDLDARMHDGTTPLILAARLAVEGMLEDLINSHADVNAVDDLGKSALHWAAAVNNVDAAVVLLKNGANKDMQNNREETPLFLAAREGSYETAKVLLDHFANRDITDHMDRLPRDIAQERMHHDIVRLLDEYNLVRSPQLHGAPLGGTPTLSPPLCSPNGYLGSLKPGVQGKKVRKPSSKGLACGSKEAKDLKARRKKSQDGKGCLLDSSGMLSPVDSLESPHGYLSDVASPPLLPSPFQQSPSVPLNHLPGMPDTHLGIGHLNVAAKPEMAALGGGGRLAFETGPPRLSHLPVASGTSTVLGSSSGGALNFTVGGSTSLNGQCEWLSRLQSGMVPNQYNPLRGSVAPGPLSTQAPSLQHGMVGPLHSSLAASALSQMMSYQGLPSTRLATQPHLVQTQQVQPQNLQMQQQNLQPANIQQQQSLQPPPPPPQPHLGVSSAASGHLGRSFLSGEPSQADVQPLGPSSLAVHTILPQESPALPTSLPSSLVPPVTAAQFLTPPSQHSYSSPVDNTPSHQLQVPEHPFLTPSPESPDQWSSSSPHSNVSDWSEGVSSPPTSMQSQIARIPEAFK

B1: soluble anti-NRR scFv (scFv, V domains shown)
VH: EVQLVESGGGLVQPGGSLRLSCAASGFTFSSYWIHWVRQAPGKGLEWVARINPPNRSNQYADSVKGRFTISADTSKNTAYLQMNSLRAEDTAVYYCARGSGFRWVMDYWGQGTLVTVSS
VL: DIQMTQSPSSLSASVGDRVTITCRASQDVSTAVAWYQQKPGKAPKLLIYSASFLYSGVPSRFSGSGSGTDFTLTISSLQPEDFATYYCQQFYTTPSTFGQGTKVEIK
**Q.** Does B1 bind?
**A.** binds
